# Source: article PMC2843815 (Protein expression and purification, 2010)
# Target: the molecule itself
# Assay: SEC-MALS
protein,measurement,value
"Bor1p (natural protein, S. cerevisiae) MSNESTRVTVSRGCTASDECAQALERTNDELDRESSVSESRSDEESHEKLSRRRFPTLGIGIWLDLKDRIPYYKSDWVDAFNYRVIPSIVDTYFNNLLPAIAFAQDMFDRTDNSYGVNEVLLSSAMAGIVFGVLGGQPLCIVGVTGPISIFNYTVYEIIKPLNTSYFGFMFWICMWSMIFHLVLAFTNAVCLLQYVTTFPCDIFGLFINVVYIQKGIQILTRQFSAKSGEKSVQDGFASVVVALVMTAFGLFFKLFHYYPLFSHRIRTFISDYSTALSVLFWSSFTHFGGYLHDVKFKKLPITKAFFPTSKVNRPQNTWLAYEPIPVKDVFIALPFGIFLTILFYFDHNVSSLMAQRHQYKLKKPSSFHYDFALLGLTTCISGVLGIPAPNGLIPQAPLHTETLLVRDSNQKVISCVEQRFTNTFQGLMILGTMTRPLLVCLGEIPQAVLSGLFFIMGINGLMTNSIIQRLVFLFSDPNRRDNTSPLMKVSKKSMLIFLSFSLTGFAGEFAITNTIAAIGFPLVLLLSVLVSFSFAYIFPTEELKILDTNVAQKFTIKNLLLENIRDAKFCDKHEDSGLEVLFQ",stoichiometry N,2
